Data reported in patent US20230374078A1 (Janssen / Centocor, published 2023).

Target: C97ZA_SOSIP_L556P_T651F_M535N (HIV-1 clade C strain C97ZA)
Assay: AlphaLISA on crude cell culture supernatant

B1: mAb PGT145 (antibody, V domains shown)
VH: QVQLVQSGAEVKKPGSSVKVSCKASGNSFSNHDVHWVRQATGQGLEWMGWMSHEGDKTGLAQKFQGRVTITRDSGASTVYMELRGLTADDTAIYYCLTGSKHRLRDYFLYNEYGPNYEEWGDYLATLDVWGHGTAVTVSS
VL: EVVITQSPLFLPVTPGEAASLSCKCSHSLQHSTGANYLAWYLQRPGQTPRLLIHLATHRASGVPDRFSGSGSGTDFTLKISRVESDDVGTYYCMQGLHSPWTFGQGTKVEIKR
Q: With B1 as the binder, how does the “trimer yield (PGT145 AlphaLISA signal), fold over the C97ZA_SOSIP backbone” value read?
A: 5 fold
